Source: paper PMC8915965
Where two headings read alike, the source gives them in different places.

Assays:
[1] = expression in HeLaΔCD164 (SI Fig. S4); details: glycan lost; control: WT CD164

B1: CD164: N104Q hCD164PM (protein)
parent chain: MSRLSRSLLWAATCLGVLCVLSADKNTTQHPNVTTLAPISNVTSAPVTSLPLVTTPAPETCEGRNSCVSCFNVSVVNTTCFWIECKDESYCSHNSTVSDCQVGNTTDFCSVSTATPVPTANSTAKPTVQPSPSTTSKTVTTSGTTNNTVTPTSQPVRKSTFDAASFIGGIVLVLGVQAVIFFLYKFCKSKERNYHTL
other: cell-cell membrane fusion (glycan lost): abolishes

B2: rat CD164 (rCD164): T102N rCD164 (protein)
parent chain: MSGASRGLFWAATCLAALCLSAAQSNSSASPNVTDPPTTTSKVVPTTLTTTKPPETCESFNSCVSCVNATLTNNITCVWLDCHEANKTYCSSELVSNCTQKTSTDSCSVIPTTPVPTNSTAKPTTRPSSPTPTPSVVTSAGATNTTVTPTSQPERKSTFDAASFIGGIVLVLGVQAVIFFLYKFCKSKERNYHTL
other: support of virus infection (glycan gained): increases

B3: CD164: N104Q (protein)
parent chain: MSRLSRSLLWAATCLGVLCVLSADKNTTQHPNVTTLAPISNVTSAPVTSLPLVTTPAPETCEGRNSCVSCFNVSVVNTTCFWIECKDESYCSHNSTVSDCQVGNTTDFCSVSTATPVPTANSTAKPTVQPSPSTTSKTVTTSGTTNNTVTPTSQPVRKSTFDAASFIGGIVLVLGVQAVIFFLYKFCKSKERNYHTL
expression_or_secretion [1]: no change
other: support of virus infection (glycan lost): decreases

B4: CD164: N72Q (protein)
parent chain: MSRLSRSLLWAATCLGVLCVLSADKNTTQHPNVTTLAPISNVTSAPVTSLPLVTTPAPETCEGRNSCVSCFNVSVVNTTCFWIECKDESYCSHNSTVSDCQVGNTTDFCSVSTATPVPTANSTAKPTVQPSPSTTSKTVTTSGTTNNTVTPTSQPVRKSTFDAASFIGGIVLVLGVQAVIFFLYKFCKSKERNYHTL
expression_or_secretion [1]: no change
other: support of virus infection (glycan lost): no change

B5: CD164: N77Q (protein)
parent chain: MSRLSRSLLWAATCLGVLCVLSADKNTTQHPNVTTLAPISNVTSAPVTSLPLVTTPAPETCEGRNSCVSCFNVSVVNTTCFWIECKDESYCSHNSTVSDCQVGNTTDFCSVSTATPVPTANSTAKPTVQPSPSTTSKTVTTSGTTNNTVTPTSQPVRKSTFDAASFIGGIVLVLGVQAVIFFLYKFCKSKERNYHTL
expression_or_secretion [1]: no change
other: support of virus infection (glycan lost): no change

B6: CD164: N94Q (protein)
parent chain: MSRLSRSLLWAATCLGVLCVLSADKNTTQHPNVTTLAPISNVTSAPVTSLPLVTTPAPETCEGRNSCVSCFNVSVVNTTCFWIECKDESYCSHNSTVSDCQVGNTTDFCSVSTATPVPTANSTAKPTVQPSPSTTSKTVTTSGTTNNTVTPTSQPVRKSTFDAASFIGGIVLVLGVQAVIFFLYKFCKSKERNYHTL
expression_or_secretion [1]: no change
other: support of virus infection (glycan lost): no change
